The source of these data is PMC3936710.

A word on the Kd: it is the constant that tells how readily two partners part at equilibrium.

Several values for one entry are separate records, joined by “and”; a condition that tells them apart may be missing. Equal entries are not always repeated.

The target of data set [1] is T1, TRF1 (UniProt P54274).
T1 sequence: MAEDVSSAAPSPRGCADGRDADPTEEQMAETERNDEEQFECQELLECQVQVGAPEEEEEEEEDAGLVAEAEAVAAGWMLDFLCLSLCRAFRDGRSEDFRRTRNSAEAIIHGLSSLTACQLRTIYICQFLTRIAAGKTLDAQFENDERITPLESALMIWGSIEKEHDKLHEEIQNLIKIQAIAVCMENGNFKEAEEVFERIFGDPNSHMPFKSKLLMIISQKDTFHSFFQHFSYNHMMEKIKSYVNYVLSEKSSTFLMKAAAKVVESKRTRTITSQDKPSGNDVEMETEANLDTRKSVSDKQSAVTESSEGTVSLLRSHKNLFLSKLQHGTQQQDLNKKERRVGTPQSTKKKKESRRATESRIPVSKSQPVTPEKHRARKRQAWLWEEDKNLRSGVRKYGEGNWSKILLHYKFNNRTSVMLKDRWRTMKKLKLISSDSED
Put plainly: single-molecule DNA tightrope. The settings on record: Tightrope assays at 75-225 mM ionic strength (buffer, pH and temperature not in the material); AFM samples diluted 10-fold in 25 mM NaOAc, 25 mM HEPES-KOH pH 7.

In data set [2] the target is T2, TRF2 (UniProt Q15554).
T2 sequence: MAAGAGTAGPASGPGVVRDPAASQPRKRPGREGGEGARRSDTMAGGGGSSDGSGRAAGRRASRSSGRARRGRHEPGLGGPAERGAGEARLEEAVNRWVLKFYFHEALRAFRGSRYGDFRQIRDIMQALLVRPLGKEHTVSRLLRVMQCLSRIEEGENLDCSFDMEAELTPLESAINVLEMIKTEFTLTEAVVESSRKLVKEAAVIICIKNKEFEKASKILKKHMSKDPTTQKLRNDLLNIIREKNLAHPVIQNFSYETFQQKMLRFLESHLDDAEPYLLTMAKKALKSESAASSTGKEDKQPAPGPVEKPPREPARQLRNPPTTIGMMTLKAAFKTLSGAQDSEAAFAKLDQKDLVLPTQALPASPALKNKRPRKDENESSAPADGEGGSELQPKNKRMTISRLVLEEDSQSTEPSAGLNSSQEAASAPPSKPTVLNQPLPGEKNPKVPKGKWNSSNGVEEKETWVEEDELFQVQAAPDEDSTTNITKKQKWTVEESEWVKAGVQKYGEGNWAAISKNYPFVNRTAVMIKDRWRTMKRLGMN
Put plainly: single-molecule DNA tightrope. The following applies: Tightrope assays at 75-225 mM ionic strength (buffer, pH and temperature not in the material); AFM samples diluted 10-fold in 25 mM NaOAc, 25 mM HEPES-KOH pH 7.

Data set [3] has as its target T3, TRF2ΔB (UniProt Q15554).
T3 sequence: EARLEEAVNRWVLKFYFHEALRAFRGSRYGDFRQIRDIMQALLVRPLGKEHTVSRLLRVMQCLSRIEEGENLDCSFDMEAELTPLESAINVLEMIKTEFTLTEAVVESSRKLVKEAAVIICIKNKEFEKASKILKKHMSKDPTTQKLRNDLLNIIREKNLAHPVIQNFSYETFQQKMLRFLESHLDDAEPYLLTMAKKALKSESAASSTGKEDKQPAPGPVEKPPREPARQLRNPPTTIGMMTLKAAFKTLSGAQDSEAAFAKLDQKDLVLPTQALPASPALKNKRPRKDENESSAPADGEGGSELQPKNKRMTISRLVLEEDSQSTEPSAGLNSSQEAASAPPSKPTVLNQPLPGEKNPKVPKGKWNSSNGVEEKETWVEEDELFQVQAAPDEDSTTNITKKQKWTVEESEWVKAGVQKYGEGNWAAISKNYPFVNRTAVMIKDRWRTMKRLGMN
Description: AFM. The following applies: linear T270; Tightrope assays at 75-225 mM ionic strength (buffer, pH and temperature not in the material); AFM samples diluted 10-fold in 25 mM NaOAc, 25 mM HEPES-KOH pH 7.

The target of data set [4] is T3, TRF2ΔB. Description: single-molecule DNA tightrope. The settings on record: 125 mM ionic strength; Tightrope assays at 75-225 mM ionic strength (buffer, pH and temperature not in the material); AFM samples diluted 10-fold in 25 mM NaOAc, 25 mM HEPES-KOH pH 7.
In data set [5] the test system is TRF2 Myb domain. Description: cited. The settings on record: Tightrope assays at 75-225 mM ionic strength (buffer, pH and temperature not in the material); AFM samples diluted 10-fold in 25 mM NaOAc, 25 mM HEPES-KOH pH 7.; cited from earlier work.
In data set [6] the test system is TRF1 Myb domain. Put plainly: cited. The settings on record: Tightrope assays at 75-225 mM ionic strength (buffer, pH and temperature not in the material); AFM samples diluted 10-fold in 25 mM NaOAc, 25 mM HEPES-KOH pH 7.; cited from earlier work.

For T270 telomeric region (TTAGGG)270, the binding signal (s (attached lifetime)) is 17.3 and 9.2 in data set [1]; 14.8 and 10.3 in data set [2]. Further, the binding signal (% of DNA-bound QDs at telomeric region) in data set [3] amounted to 66.

As to “TTAGGGTTAGGGTTAGGGTTAGGGTTAGGGTTAGGGTTAGGGTTAGGGTTAGGGTTAGGG (double strand) [Tel10 telomeric region (TTAGGG)10]”, the binding signal (s (attached lifetime)) in data set [2] was 6.7.

In data set [4], lambda DNA yielded a binding signal (QDs per field of view (TRF2 13.3)) of 1.4. In the case of telomeric DNA of cited Myb domain study, the Kd in data set [5] is 0.75 µM; in data set [6], 0.2 µM.
